Laboratory results from paper PMC2920317, “CHL1 Is a Selective Organizer of the Presynaptic Machinery Chaperoning the SNARE Complex” (PLoS ONE, 2010).

Molecular target: T1, Close homologue of L1 (CHL1) (mouse (endogenous in brain), UniProt P70232 26-1209)
T1 construct: CHL1, cell adhesion molecule of the immunoglobulin superfamily, endogenous in adult mouse brain; also called CALL; source: endogenous, mouse brain lysate; synaptosomes; synaptic vesicles and synaptic plasma membranes
T1 sequence (looked up): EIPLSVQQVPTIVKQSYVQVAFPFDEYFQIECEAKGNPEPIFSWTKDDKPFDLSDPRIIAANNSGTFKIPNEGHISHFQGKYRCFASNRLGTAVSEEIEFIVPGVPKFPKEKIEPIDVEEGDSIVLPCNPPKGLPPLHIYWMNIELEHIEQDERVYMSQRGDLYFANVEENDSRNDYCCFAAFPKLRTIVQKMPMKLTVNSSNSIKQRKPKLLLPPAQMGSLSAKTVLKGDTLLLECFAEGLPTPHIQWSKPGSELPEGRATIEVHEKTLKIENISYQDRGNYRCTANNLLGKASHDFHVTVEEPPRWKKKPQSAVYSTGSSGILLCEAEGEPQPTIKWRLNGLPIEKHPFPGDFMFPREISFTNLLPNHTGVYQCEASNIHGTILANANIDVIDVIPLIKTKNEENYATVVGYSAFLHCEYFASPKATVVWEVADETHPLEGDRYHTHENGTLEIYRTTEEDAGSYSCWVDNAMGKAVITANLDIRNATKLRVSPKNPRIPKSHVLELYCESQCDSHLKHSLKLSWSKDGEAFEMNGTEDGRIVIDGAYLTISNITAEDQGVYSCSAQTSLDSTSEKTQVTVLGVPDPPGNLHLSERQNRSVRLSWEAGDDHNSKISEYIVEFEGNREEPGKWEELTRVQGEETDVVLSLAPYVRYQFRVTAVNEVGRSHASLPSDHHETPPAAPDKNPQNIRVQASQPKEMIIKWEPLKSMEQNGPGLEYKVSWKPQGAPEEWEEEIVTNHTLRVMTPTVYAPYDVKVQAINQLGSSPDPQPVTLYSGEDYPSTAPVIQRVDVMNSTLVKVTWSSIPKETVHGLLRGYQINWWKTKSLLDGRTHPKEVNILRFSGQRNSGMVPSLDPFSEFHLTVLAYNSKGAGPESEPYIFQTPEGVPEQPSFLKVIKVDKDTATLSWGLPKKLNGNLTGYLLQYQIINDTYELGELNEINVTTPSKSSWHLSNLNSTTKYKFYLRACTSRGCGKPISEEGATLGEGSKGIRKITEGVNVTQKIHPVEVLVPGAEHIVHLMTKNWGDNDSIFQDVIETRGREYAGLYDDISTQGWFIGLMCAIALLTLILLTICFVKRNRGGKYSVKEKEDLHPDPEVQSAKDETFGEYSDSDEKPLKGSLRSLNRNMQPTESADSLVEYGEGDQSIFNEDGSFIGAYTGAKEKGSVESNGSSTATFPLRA
Assay: co-IP; CHL1 immunoprecipitated from adult mouse brain lysates (50 mM Tris-HCl pH 7.5, 150 mM NaCl, 1% Nonidet P-40, 1 mM EDTA); protein A/G-agarose; Western blot; mock IP with non-specific Ig as control
Conditions: partners not purified

B1: syntaxin1B (natural protein, mouse (endogenous in brain), UniProt P61264 1-288, looked up)
chain: MKDRTQELRSAKDSDDEEEVVHVDRDHFMDEFFEQVEEIRGCIEKLSEDVEQVKKQHSAILAAPNPDEKTKQELEDLTADIKKTANKVRSKLKAIEQSIEQEEGLNRSSADLRIRKTQHSTLSRKFVEVMTEYNATQSKYRDRCKDRIQRQLEITGRTTTNEELEDMLESGKLAIFTDDIKMDSQMTKQALNEIETRHNEIIKLETSIRELHDMFVDMAMLVESQGEMIDRIEYNVEHSVDYVERAVSDTKKAVKYQSKARRKKIMIIICCVVLGVVLASSIGGTLGL
notes: syntaxin1B, SNARE complex protein, endogenous in adult mouse brain; also called synatxin1B; source: endogenous, mouse brain lysate and synaptosomes; immunoprecipitated from synaptosomes and held on beads
- percent of the total pool co-immunoprecipitated: 15 ± 3.1%

B2: small glutamine-rich tetratricopeptide repeat-containing protein, ubiquitous isoform (αSGT) (natural protein, mouse (endogenous in brain), UniProt Q8BJU0 1-315, looked up)
chain: MDNRKRLAYAIIQFLHGQLRHGGLSCDAQESLEVAIQCLETAFGVTLEDSDLALPQTLPEIFEAATSSKQEMPQDPRAPDRTPPSEEDSAEAERLKTEGNEQMKLENFEAAVHLYGKAIELNPANAVYFCNRAAAYSKLGNYVGAVQDCERAIGIDPGYSKAYGRMGLALSSLNKHAEAVAYYKKALELDPDNDTYKSNLKIAELKLREAPSPTGGVGSLDIAGLLNNPHFITMASSLMNSPQLQQLMSGMISGGHNPLGTPGSSPQQSDLASLIQAGQQFAQQMQQQNPEFVEQIRSQVVRSRTPSASHEEQQE
notes: αSGT, endogenous in adult mouse brain; also called alphaSGT; source: endogenous, mouse brain lysate; synaptic vesicles and synaptic plasma membranes
- percent of the total pool co-immunoprecipitated: 46 ± 8.5%
